Measured values published in patent US20230405133A1, “PURIFIED MULTIVALENT PROTEIN-HYALURONIC ACID POLYMER CONJUGATES” (Valitor, Inc., priority 2022, published 2023).

Tests used:
[1] = biological target: T1, Human VEGF 165 (human, UniProt P15692-4 27-191); assay: BLI, VEGF binding affinity (KD, nM)
T1 construct: Loaded on the BLI probe as the ligand; also called BLI ligand Human VEGF 165 (Avi tag, R&D Systems AVI-293-050); not shown: Avi tag

[2] = biological target: T1, Human VEGF 165; assay: BLI, VEGF 165 on probe; sample aged 11 days at 37 °C; limit of detection; aged 11 days at 37 C (sample 1)
[3] = biological target: T1, Human VEGF 165; assay: BLI, VEGF 165 on probe, t = 0 (repeats Table 15); limit of detection; t = 0, fresh conjugate, not aged
[4] = biological target: T1, Human VEGF 165; assay: BLI, VEGF 165 on probe, conjugate as analyte, t = 0; value is the limit of detection
[5] = biological target: T1, Human VEGF 165; assay: BLI; KD after 32 days at 37 °C against KD at t = 0
[6] = biological target: T1, Human VEGF 165; assay: BLI, VEGF 165 on probe; sample aged 32 days at 37 °C
[7] = biological target: T1, Human VEGF 165; assay: BLI; KD after 11 days at 37 °C against KD at t = 0
[8] = biological target: T1, Human VEGF 165; assay: BLI, VEGF 165 on probe, conjugate as analyte, t = 0; value is the limit of detection; t = 0, fresh conjugate, not aged
[9] = biological target: T1, Human VEGF 165; assay: BLI, VEGF 165 on probe, conjugate as analyte, t = 0
[10] = biological target: T1, Human VEGF 165; assay: BLI, VEGF 165 on probe, t = 0 (repeats Table 15)
[11] = biological target: T1, Human VEGF 165; assay: BLI, VEGF 165 on probe; sample aged 4 days at 37 °C
[12] = biological target: T1, Human VEGF 165; assay: BLI; KD after 14 days at 37 °C against KD at t = 0
[13] = biological target: T1, Human VEGF 165; assay: BLI, VEGF 165 on probe; sample aged 14 days at 37 °C
[14] = biological target: T1, Human VEGF 165; assay: BLI; KD after 4 days at 37 °C against KD at t = 0
[15] = biological target: T1, Human VEGF 165; assay: BLI, VEGF 165 on probe, t = 0 (repeats Table 15); limit of detection
[16] = biological target: T1, Human VEGF 165; assay: BLI, VEGF 165 on probe; sample aged 4 days at 37 °C; limit of detection

T1 sequence (P15692 other isoform, or with tags, fused parts or gaps limits assumed): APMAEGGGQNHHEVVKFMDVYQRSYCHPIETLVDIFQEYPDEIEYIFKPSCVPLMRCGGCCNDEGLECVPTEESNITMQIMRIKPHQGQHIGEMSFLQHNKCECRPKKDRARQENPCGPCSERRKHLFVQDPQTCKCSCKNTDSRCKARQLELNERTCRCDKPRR

Binder | binding result [1] | Kd [4] | Change in KD to t = 0 [12] | Kd [13] | Change in KD to t = 0 [14] | Kd [15] | further results
Conjugate 1 (anti-VEGF DARPin SEQ ID NO: 92 on hyaluronic acid, intermediate 5-4) (designed binder, peptide bound through the organic linker MP2H to hyaluronic acid (830 kDa); site of attachment not stated, Multivalent peptide-hyaluronic acid conjugate (MVP); peptide valency 68; Method 5 intermediate (high EDC, N-acylurea adducts); also called DARPin MVP (Method 5)) GSDLDKKLLEAARAGQDDEVRILMANGADVNARDSTGWTPLHLAAPWGHPEIVEVLLKNGADVNAADFQGWTPLHLAAAVGHLEIVEVLLKYGADVNAQDKFGKTAFDISIDNGNEDLAEILQKAAGGGSGGGS | – | < 1 pM | – | – | – | – | Kd [2]: < 1 pM; Kd [3]: < 1 pM; Change in KD to t = 0 [5]: 75 fold; Kd [6]: 75 pM; Change in KD to t = 0 [7]: 1 fold
Conjugate 15 (anti-VEGF VHH SEQ ID NO: 91 with aH linker SEQ ID NO: 21 on hyaluronic acid, intermediate 5-10) (VHH, C-terminal Cys of the peptide linker bound by its thiol to the maleimide of the organic linker EMCH on hyaluronic acid (830 kDa), Multivalent peptide-hyaluronic acid conjugate (MVP); peptide valency 59; Method 5 intermediate 5-10, made with EMCH instead of MP2H; also called BI VHH anti-VEGF MVP) VHH: DVQLVESGGGLVQPGGSLRLSCAASGRTFSSYSMGWFRQAPGKEREFVVAISKGGYKYDAVSLEGRFTISRDNAKNTVYLQINSLRPEDTAVYYCASSRAYGSSRLRLADTYEYWGQGTLVTVSS | – | – | – | – | – | – | Kd [8]: < 1 pM
Conjugate 17 (anti-VEGF VHH SEQ ID NO: 91 on hyaluronic acid, intermediate 1-7) (VHH, peptide bound through the organic linker MP2H to hyaluronic acid (830 kDa); site of attachment not stated, Multivalent peptide-hyaluronic acid conjugate (MVP); peptide valency 90; Method 1 intermediate; also called BI VHH anti-VEGF MVP) VHH: DVQLVESGGGLVQPGGSLRLSCAASGRTFSSYSMGWFRQAPGKEREFVVAISKGGYKYDAVSLEGRFTISRDNAKNTVYLQINSLRPEDTAVYYCASSRAYGSSRLRLADTYEYWGQGTLVTVSS | – | – | 228 fold | 911 pM | 178 fold | – | Kd [9]: 4 pM; Kd [10]: 4 pM; Kd [11]: 713 pM
Conjugate 18 (anti-VEGF VHH SEQ ID NO: 91 on hyaluronic acid, intermediate 1-7) (VHH, peptide bound through the organic linker MP2H to hyaluronic acid (830 kDa); site of attachment not stated, Multivalent peptide-hyaluronic acid conjugate (MVP); peptide valency 88; Method 1 intermediate; also called BI VHH anti-VEGF MVP) VHH: DVQLVESGGGLVQPGGSLRLSCAASGRTFSSYSMGWFRQAPGKEREFVVAISKGGYKYDAVSLEGRFTISRDNAKNTVYLQINSLRPEDTAVYYCASSRAYGSSRLRLADTYEYWGQGTLVTVSS | – | < 1 pM | 3670 fold | 3670 pM | 1 fold | < 1 pM | Kd [16]: < 1 pM
Conjugate 19 (anti-VEGF VHH SEQ ID NO: 91 on hyaluronic acid, intermediate 2-6) (VHH, peptide bound through the organic linker MP2H to hyaluronic acid (830 kDa); site of attachment not stated, Multivalent peptide-hyaluronic acid conjugate (MVP); peptide valency 108; Method 2 intermediate; also called BI VHH anti-VEGF MVP) VHH: DVQLVESGGGLVQPGGSLRLSCAASGRTFSSYSMGWFRQAPGKEREFVVAISKGGYKYDAVSLEGRFTISRDNAKNTVYLQINSLRPEDTAVYYCASSRAYGSSRLRLADTYEYWGQGTLVTVSS | – | < 1 pM | – | – | 185 fold | < 1 pM | Kd [11]: 185 pM

Further lines, with some results ahead:

binding result [1] | Kd [4] | Change in KD to t = 0 [12] | Kd [13] | Change in KD to t = 0 [14] | Kd [15] | Binder | further results
binds | – | – | – | – | – | 2H10_5MUT_aH_CYS (unconjugated) (VHH, Free peptide, not conjugated to hyaluronic acid) VHH: QVQLVESGGGLVQPGGSLRLSCLASGRRFSIEAMGWYRQAPGKQRELVAIIDSGGSTDYVDSAKGRFTISRDNSKNTVYLQMNSLRAEDTAVYYCNVIGSSWYGRGLDYWGQGTLVTVSS | –
binds | – | – | – | – | – | HuNb42_A88P_aH_CYS (unconjugated) (VHH, Free peptide, not conjugated to hyaluronic acid) VHH: QVQLVESGGGLVQPGGSLRLSCAASGFAYSTYSMGWFRQAPGKEREAVATINSGTFRLWYTDSVKGRFTISRDNSKNTLYLQMNSLRPEDTAVYYCAARAWSPYSSTVDAGDFRYWGQGTLVTVSS | –
binds | – | – | – | – | – | 2H10_5MUT_aH_CYS MVP [140.3] (VHH, C-terminal Cys is the conjugation site, Multivalent protein-hyaluronic acid conjugate) VHH: QVQLVESGGGLVQPGGSLRLSCLASGRRFSIEAMGWYRQAPGKQRELVAIIDSGGSTDYVDSAKGRFTISRDNSKNTVYLQMNSLRAEDTAVYYCNVIGSSWYGRGLDYWGQGTLVTVSS | –
– | < 1 pM | 1440 fold | 1440 pM | 1 fold | < 1 pM | Conjugate 20 (anti-VEGF VHH SEQ ID NO: 91 on hyaluronic acid, intermediate 2-8) (VHH, peptide bound through the organic linker MP2H to hyaluronic acid (830 kDa); site of attachment not stated, Multivalent peptide-hyaluronic acid conjugate (MVP); peptide valency 91; Method 2 intermediate; also called BI VHH anti-VEGF MVP) VHH: DVQLVESGGGLVQPGGSLRLSCAASGRTFSSYSMGWFRQAPGKEREFVVAISKGGYKYDAVSLEGRFTISRDNAKNTVYLQINSLRPEDTAVYYCASSRAYGSSRLRLADTYEYWGQGTLVTVSS | Kd [16]: < 1 pM
